Laboratory results as given in publication PMC6555819, “Comprehensive study of nuclear receptor DNA binding provides a revised framework for understanding receptor specificity”.

How the values were obtained:
RXRa = RXRa (Homo sapiens, UniProt P19793); assay: no ligand; PBM; 180 nM; PBS pH 7.4, 2% milk, 0.02% Triton X-100, 1 mM DTT, BSA, 0.4 mg/ml salmon testes DNA; details: tags: His cleaved; chain copies: 2; label: surface-attached array probe
LXRb:RXRa = LXRb:RXRa (Homo sapiens, UniProt P55055;P19793 full;full); assay: no ligand; PBM; 270 nM : 90 nM RXRa; PBS pH 7.4, 2% milk, 0.02% Triton X-100, 1 mM DTT, BSA, 0.4 mg/ml salmon testes DNA; details: tags: His kept;His cleaved; copies: 1;1; label: surface-attached array probe
LXRb:RXRa, sequence (P55055 whole entry, chain 1 of 2): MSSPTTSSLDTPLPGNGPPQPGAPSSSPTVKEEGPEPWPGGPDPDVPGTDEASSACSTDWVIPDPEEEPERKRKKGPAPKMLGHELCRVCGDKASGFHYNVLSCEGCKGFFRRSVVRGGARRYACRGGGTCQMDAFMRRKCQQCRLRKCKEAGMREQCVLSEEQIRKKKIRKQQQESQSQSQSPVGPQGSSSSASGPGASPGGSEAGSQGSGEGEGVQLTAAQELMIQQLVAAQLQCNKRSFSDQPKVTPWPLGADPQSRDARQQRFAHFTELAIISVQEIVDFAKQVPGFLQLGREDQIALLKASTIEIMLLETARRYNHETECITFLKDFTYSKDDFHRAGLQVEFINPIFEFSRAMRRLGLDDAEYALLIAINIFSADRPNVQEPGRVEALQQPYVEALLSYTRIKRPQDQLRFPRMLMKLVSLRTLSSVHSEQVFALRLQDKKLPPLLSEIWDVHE
LXRb:RXRa, sequence (P19793 whole entry, chain 2 of 2): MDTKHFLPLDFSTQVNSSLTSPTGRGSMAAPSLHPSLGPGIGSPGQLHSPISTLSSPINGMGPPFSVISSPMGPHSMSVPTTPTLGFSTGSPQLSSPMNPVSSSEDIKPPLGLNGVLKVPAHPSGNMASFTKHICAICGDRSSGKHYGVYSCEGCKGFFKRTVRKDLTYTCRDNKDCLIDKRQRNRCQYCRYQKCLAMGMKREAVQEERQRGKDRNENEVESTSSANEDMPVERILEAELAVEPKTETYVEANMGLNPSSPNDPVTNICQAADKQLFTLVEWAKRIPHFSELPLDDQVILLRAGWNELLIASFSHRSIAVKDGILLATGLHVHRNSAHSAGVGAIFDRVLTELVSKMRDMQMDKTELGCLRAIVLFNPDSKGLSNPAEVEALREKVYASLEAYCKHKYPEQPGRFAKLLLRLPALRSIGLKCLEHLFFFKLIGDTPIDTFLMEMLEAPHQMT
Method in brief: (§1)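 The probes on custom Agilent 4×180K protein-binding microarrays were double-stranded, with 34-nt variable regions bearing direct-repeat seeds, single-nucleotide variants, half-site ablations and random human genomic background sequences. Incubation lasted 1 h with ligand-free nuclear receptor dimers in PBS pH 7.4, 2% milk, 0.02% Triton X-100, 1 mM DTT, 0.2 mg/mL BSA and 0.4 mg/ml salmon testes DNA. Antibodies against each partner (one per run) detected bound dimers, and fluorescence scans were regression-normalized. Binding z-scores take the random background probes as reference.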

PPARa:RXRa = PPARa:RXRa (Homo sapiens, UniProt Q07869;P19793 full;full); assay: as above; details: tags: GST kept;His cleaved; copies: 1;1; label: surface-attached array probe
PPARa:RXRa, sequence (Q07869 whole entry, chain 1 of 2): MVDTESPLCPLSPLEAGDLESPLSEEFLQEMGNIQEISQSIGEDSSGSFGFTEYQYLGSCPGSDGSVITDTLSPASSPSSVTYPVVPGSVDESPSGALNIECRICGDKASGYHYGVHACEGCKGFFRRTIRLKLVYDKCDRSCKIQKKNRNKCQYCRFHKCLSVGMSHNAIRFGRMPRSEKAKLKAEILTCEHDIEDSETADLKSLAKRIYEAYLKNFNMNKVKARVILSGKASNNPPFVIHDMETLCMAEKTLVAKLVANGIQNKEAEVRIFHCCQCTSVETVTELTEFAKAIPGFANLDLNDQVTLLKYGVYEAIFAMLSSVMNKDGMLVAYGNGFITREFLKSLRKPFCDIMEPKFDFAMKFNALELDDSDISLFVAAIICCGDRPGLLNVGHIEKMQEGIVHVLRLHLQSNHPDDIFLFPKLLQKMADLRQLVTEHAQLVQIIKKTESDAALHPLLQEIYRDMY
PPARa:RXRa, sequence (P19793 whole entry, chain 2 of 2): as the sequence (P19793 whole entry, chain 2 of 2) above
Method in brief: as §1

RARb:RXRa = RARb:RXRa (Homo sapiens, UniProt P10826;P19793 full;full); assay: as above; details: tags: His kept;His cleaved; copies: 1;1; label: surface-attached array probe
RARb:RXRa, sequence (P10826 whole entry, chain 1 of 2): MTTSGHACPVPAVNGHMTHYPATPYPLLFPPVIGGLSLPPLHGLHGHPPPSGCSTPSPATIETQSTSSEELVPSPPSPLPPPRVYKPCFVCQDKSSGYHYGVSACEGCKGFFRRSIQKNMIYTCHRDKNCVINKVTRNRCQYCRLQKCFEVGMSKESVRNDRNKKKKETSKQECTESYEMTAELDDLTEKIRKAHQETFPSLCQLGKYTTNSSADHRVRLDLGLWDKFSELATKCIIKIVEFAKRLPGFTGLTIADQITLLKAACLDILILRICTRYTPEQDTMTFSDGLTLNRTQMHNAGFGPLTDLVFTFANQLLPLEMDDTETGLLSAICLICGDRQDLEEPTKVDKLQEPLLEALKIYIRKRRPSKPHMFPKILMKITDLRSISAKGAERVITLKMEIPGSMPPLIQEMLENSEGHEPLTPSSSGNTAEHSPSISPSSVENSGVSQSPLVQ
RARb:RXRa, sequence (P19793 whole entry, chain 2 of 2): as the sequence (P19793 whole entry, chain 2 of 2) above
Method in brief: as §1

RARg:RXRa = RARg:RXRa (Homo sapiens, UniProt P13631;P19793 full;full); assay: as above; details: tags: His kept;His cleaved; copies: 1;1; label: surface-attached array probe
RARg:RXRa, sequence (P13631 whole entry, chain 1 of 2): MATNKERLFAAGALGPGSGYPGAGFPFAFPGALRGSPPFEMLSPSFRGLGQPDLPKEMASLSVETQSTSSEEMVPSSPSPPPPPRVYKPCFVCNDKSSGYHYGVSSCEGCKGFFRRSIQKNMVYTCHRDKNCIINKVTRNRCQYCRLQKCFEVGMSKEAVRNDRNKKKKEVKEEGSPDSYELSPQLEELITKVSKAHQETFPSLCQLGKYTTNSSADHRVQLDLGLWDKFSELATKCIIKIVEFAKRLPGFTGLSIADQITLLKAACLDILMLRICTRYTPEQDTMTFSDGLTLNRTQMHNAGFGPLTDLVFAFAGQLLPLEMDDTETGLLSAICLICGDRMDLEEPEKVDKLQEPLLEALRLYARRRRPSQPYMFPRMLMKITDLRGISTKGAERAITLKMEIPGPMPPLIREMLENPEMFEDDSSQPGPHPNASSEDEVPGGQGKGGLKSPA
RARg:RXRa, sequence (P19793 whole entry, chain 2 of 2): as the sequence (P19793 whole entry, chain 2 of 2) above
Method in brief: as §1

FXR:RXRa = FXR:RXRa (Homo sapiens, UniProt Q96RI1;P19793 full;full); assay: as above; details: tags: His kept;His cleaved; copies: 1;1; label: surface-attached array probe
FXR:RXRa, sequence (Q96RI1 whole entry, chain 1 of 2): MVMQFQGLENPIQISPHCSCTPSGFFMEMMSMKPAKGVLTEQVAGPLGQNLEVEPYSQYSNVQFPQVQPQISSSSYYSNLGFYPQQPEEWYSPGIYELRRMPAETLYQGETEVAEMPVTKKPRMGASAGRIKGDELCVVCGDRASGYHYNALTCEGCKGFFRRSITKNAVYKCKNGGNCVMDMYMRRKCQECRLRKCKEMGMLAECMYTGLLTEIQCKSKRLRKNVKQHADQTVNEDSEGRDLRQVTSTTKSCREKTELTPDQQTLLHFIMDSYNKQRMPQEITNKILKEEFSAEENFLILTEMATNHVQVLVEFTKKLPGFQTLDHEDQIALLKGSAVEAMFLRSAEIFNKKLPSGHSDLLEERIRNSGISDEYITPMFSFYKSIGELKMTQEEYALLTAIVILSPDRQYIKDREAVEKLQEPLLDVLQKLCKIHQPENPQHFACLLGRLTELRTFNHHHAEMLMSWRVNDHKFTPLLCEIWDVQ
FXR:RXRa, sequence (P19793 whole entry, chain 2 of 2): as the sequence (P19793 whole entry, chain 2 of 2) above
Method in brief: as §1

VDR:RXRa = VDR:RXRa (Homo sapiens, UniProt P11473;P19793 full;full); assay: as above; details: tags: His kept;His cleaved; copies: 1;1; label: surface-attached array probe
VDR:RXRa, sequence (P11473 whole entry, chain 1 of 2): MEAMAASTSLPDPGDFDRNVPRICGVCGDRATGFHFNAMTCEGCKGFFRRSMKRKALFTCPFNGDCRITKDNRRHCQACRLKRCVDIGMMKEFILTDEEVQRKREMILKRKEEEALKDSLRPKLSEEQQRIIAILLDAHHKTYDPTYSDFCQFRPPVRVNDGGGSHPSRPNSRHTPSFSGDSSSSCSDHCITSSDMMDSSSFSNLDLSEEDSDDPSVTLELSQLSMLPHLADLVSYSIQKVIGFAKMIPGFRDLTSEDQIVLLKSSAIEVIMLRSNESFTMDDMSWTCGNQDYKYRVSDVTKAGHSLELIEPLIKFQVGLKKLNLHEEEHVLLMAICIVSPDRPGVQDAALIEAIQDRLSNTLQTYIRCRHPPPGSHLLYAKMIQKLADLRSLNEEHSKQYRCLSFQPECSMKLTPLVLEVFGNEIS
VDR:RXRa, sequence (P19793 whole entry, chain 2 of 2): as the sequence (P19793 whole entry, chain 2 of 2) above
Method in brief: as §1

RARa:RXRa = RARa:RXRa (Homo sapiens, UniProt P10276;P19793 full;full); assay: as above; details: tags: His kept;His cleaved; copies: 1;1; label: surface-attached array probe
RARa:RXRa, sequence (P10276 whole entry, chain 1 of 2): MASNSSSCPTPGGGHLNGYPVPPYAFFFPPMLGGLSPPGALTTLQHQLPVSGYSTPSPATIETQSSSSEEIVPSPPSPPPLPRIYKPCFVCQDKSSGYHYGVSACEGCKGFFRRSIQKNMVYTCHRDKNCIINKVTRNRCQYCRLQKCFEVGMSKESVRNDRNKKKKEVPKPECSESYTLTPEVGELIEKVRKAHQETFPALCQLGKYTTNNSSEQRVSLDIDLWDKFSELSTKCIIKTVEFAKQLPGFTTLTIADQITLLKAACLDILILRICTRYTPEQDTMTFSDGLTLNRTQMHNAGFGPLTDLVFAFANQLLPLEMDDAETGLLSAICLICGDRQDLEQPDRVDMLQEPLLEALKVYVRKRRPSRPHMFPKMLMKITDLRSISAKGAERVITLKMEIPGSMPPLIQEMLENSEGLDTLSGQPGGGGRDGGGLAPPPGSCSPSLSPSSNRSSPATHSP
RARa:RXRa, sequence (P19793 whole entry, chain 2 of 2): as the sequence (P19793 whole entry, chain 2 of 2) above
Method in brief: as §1

LXRa:RXRa = LXRa:RXRa (Homo sapiens, UniProt Q13133;P19793 full;full); assay: as above; details: tags: His kept;His cleaved; copies: 1;1; label: surface-attached array probe
LXRa:RXRa, sequence (Q13133 whole entry, chain 1 of 2): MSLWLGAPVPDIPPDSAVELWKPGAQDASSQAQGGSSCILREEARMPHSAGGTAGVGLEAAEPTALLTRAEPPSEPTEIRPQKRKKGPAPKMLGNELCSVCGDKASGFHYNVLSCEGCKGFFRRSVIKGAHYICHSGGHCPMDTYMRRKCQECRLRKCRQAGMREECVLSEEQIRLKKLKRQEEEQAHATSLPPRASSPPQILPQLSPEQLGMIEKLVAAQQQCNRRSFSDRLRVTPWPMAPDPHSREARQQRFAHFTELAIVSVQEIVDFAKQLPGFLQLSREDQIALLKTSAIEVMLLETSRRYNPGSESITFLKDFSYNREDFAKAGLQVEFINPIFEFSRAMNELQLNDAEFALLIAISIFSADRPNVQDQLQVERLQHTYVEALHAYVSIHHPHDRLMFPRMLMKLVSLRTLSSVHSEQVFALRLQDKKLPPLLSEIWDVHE
LXRa:RXRa, sequence (P19793 whole entry, chain 2 of 2): as the sequence (P19793 whole entry, chain 2 of 2) above
Method in brief: as §1

RXRa, sequence (P19793 whole entry): as the sequence (P19793 whole entry, chain 2 of 2) above

Binder	binding signal (RXRa)	binding signal (LXRb:RXRa)	binding signal (PPARa:RXRa)	binding signal (RARb:RXRa)	binding signal (RARg:RXRa)	binding signal (FXR:RXRa)	binding signal (VDR:RXRa)	binding signal (RARa:RXRa)	binding signal (LXRa:RXRa)
NRC3_wobSeed125_DR5_C8G_o1 (dsDNA) DNA 1: GCCCTTAGGGGTCACTGACAGGTTATAGCATTTGGAGCGATTGACAGCGTAGAATGAAGG DNA 2: CCTTCATTCTACGCTGTCAATCGCTCCAAATGCTATAACCTGTCAGTGACCCCTAAGGGC	9.59 PBM z-score against 500 random probes	6.07 PBM z-score against 500 random probes	6.95 PBM z-score against 500 random probes	5.48 PBM z-score against 500 random probes	8.18 PBM z-score against 500 random probes	8.59 PBM z-score against 500 random probes	6.5 PBM z-score against 500 random probes	7.93 PBM z-score against 500 random probes	–
NRC3_random_hg19_212_o1 (dsDNA) DNA 1: GCAAGCATCCAGGACAAGGAAAGAGTAATCAATGGCGCGATTGACAGCGTAGAATGAAGG DNA 2: CCTTCATTCTACGCTGTCAATCGCGCCATTGATTACTCTTTCCTTGTCCTGGATGCTTGC	–	–	–	–	–	–	0.09 PBM z-score against 500 random probes	-0.03 PBM z-score against 500 random probes	-0.29 PBM z-score against 500 random probes
NRC3_random_hg19_155_o1 (dsDNA) DNA 1: GCGAGTGCTATGCTTGCTTTCTATCTCATACAGTATGCGATTGACAGCGTAGAATGAAGG DNA 2: CCTTCATTCTACGCTGTCAATCGCATACTGTATGAGATAGAAAGCAAGCATAGCACTCGC	–	-0.78 PBM z-score against 500 random probes	-0.78 PBM z-score against 500 random probes	–	-0.56 PBM z-score against 500 random probes	–	–	-1.16 PBM z-score against 500 random probes	-0.77 PBM z-score against 500 random probes
NRC3_wobSeed85_DR3_C7A_o1 (dsDNA) DNA 1: GCCGTCAAAGGTCAGAGAGGTCAGTGAATGCCGAGTGCGATTGACAGCGTAGAATGAAGG DNA 2: CCTTCATTCTACGCTGTCAATCGCACTCGGCATTCACTGACCTCTCTGACCTTTGACGGC	7.98 PBM z-score against 500 random probes	5.98 PBM z-score against 500 random probes	–	5.97 PBM z-score against 500 random probes	7.93 PBM z-score against 500 random probes	8.03 PBM z-score against 500 random probes	7.92 PBM z-score against 500 random probes	7.18 PBM z-score against 500 random probes	–
NRC3_wobSeed130_DR5_G22A_o1 (dsDNA) DNA 1: GCCTCGAAAGGTCGTGCTCAGATGAGTATACCAAACGCGATTGACAGCGTAGAATGAAGG DNA 2: CCTTCATTCTACGCTGTCAATCGCGTTTGGTATACTCATCTGAGCACGACCTTTCGAGGC	–	–	–	–	–	–	–	3.27 PBM z-score against 500 random probes	3.83 PBM z-score against 500 random probes
NRC3_wobSeed49_DR2_G16A_o1 (dsDNA) DNA 1: GCCAAACTAGGTCAAAAGGTCAAAGTCCGCTTCCCGGCGATTGACAGCGTAGAATGAAGG DNA 2: CCTTCATTCTACGCTGTCAATCGCCGGGAAGCGGACTTTGACCTTTTGACCTAGTTTGGC	9.09 PBM z-score against 500 random probes	6.34 PBM z-score against 500 random probes	7.14 PBM z-score against 500 random probes	6 PBM z-score against 500 random probes	8.94 PBM z-score against 500 random probes	–	–	8.77 PBM z-score against 500 random probes	7.1 PBM z-score against 500 random probes
NRC3_random_hg19_112_o1 (dsDNA) DNA 1: GCATCTGGCATATGTTCACTCCATGTACCACAGATAGCGATTGACAGCGTAGAATGAAGG DNA 2: CCTTCATTCTACGCTGTCAATCGCTATCTGTGGTACATGGAGTGAACATATGCCAGATGC	–	–	–	–	–	–	–	-0.07 PBM z-score against 500 random probes	-0.28 PBM z-score against 500 random probes
NRC3_wobSeed36_DR1_T8G_o1 (dsDNA) DNA 1: GCCCGACGGGGGCAAAGGTTACCATACTCAGTACGAGCGATTGACAGCGTAGAATGAAGG DNA 2: CCTTCATTCTACGCTGTCAATCGCTCGTACTGAGTATGGTAACCTTTGCCCCCGTCGGGC	7.82 PBM z-score against 500 random probes	5.85 PBM z-score against 500 random probes	–	–	–	–	–	7.46 PBM z-score against 500 random probes	–
NRC3_random_hg19_37_o1 (dsDNA) DNA 1: GCTTTGCCAGGTGCGGTGGCTCAATGCCTGTAATCCGCGATTGACAGCGTAGAATGAAGG DNA 2: CCTTCATTCTACGCTGTCAATCGCGGATTACAGGCATTGAGCCACCGCACCTGGCAAAGC	–	-1.03 PBM z-score against 500 random probes	–	–	–	–	–	-0.74 PBM z-score against 500 random probes	–
NRC3_random_hg19_49_o1 (dsDNA) DNA 1: GCACAGAAGGTAGCAAAGTAATCATGCTAGTGGTCAGCGATTGACAGCGTAGAATGAAGG DNA 2: CCTTCATTCTACGCTGTCAATCGCTGACCACTAGCATGATTACTTTGCTACCTTCTGTGC	–	–	–	–	–	–	–	-0.41 PBM z-score against 500 random probes	-0.5 PBM z-score against 500 random probes
